The source of these data is the DeepSol protein solubility set.

This data set can be described thus: soluble on expression in E. coli; label from the status in PepcDB or PDB records.
As to “MTRGRVIQVMGPVVDVKFENGHLPAIYNALKIQHKARNENEVDIDLTLEVALHLGDDTVRTIAMASTDGLIRGMEVIDTGAPISVPVGQVTLGRVFNVLGEPIDLEGDIPADARRDPIHRPAPKFEELATEVEILETGIKVVDLLAPYIKGGKIGLFGGAGVGKTVLIQELIHNIAQEHGGISVFAGVGERTREGNDLYHEMKDSGVISKTAMVFGQMNEPPGARMRVALTGLTMAEYFRDEQGQDGLLFIDNIFRFTQAGSEVSALLGRMPSAIGYQPTLATEMGQLQERITSTAKGSITSIQAIYVPADDYTDPAPATTFSHLDATTNLERKLAEMGIYPAVDPLVSTSRALAPEIVGEEHYQVARKVQQTLERYKELQDIIAILGMDELSDEDKLVVHRARRIQFFLSQNFHVAEQFTGQPGSYVPVKETVRGFKEILEGKYDHLPEDRFRLVGRIEEVVEKAKAMGVEV”, the “soluble on expression in E. coli” value is recorded as “soluble”.

Consider “MADFITRAIELDEQYSQAILGINDQNLKVLENLLDCTIFVRGTRATLSGRDFEVSRGIRVLQELQSMAKRGHAISPDAVKNAVAIVAEDTPHSVNAVLASDIVARRGKVIRAKTLGQKDYVDAIDHNTIVFGLGPAGSGKTYLAMAKAVQALQAKQVNRIILTRPAVEAGEKLGFLPGTLNEKIDPYLRPLHDALRDMVDPEIIPKLMEAGIVEVAPLAYMRGRTLNDAFVILDEAQNTTPAQMKMFLTRLGFGSKMVVTGDITQVDLPGGQKSGLRLVRDILRGVEGVHFAELGSDDVVRHQLVGRIVDAYDAYEEQLKDK”, for which the “soluble on expression in E. coli” value is on record as “not soluble”.

Turning to “MSDEKKKKRGFFRYSVLTTSSFSSWRRSSTSGSISQSSRTTSKTTTSSSVTSSNPINAPPPTATSSSSVLPSTSSEPPPPASAPPRISIYHKMVPSKSKFRQCDVCEHIFIFDFVRKQHLDDVYACNVCGIRVHKGCLDRVKNDCKITTQYMGGILENAVIQSNKKQWEKPTTASISKSLTTSPTCSTSTTMSPAGVEKNVHKTRKLISMTTSTLDDVTTFNSEINEEMDEETVLMTWEDVTIKLTDVDVMTKIGDGRFGSVYFGGYHGNAAVRFVNMNYLSQEDRRADVFATEIVSAYKNSRHDHIALFYGYVSDPVTNTYAIVTNFYQHNTLYHRIHEQLSEDFDQSWTFQISLQICQAMSYLHKKKILHRDLRTKNILLDNPNRVVVTDFALMKLERLENPRRNCTLLIPNHWIDYLSPEIAGNLMIDWRGDVLFQHELPFSQESDVYSFGTIFFELLLRRMPTGCDSWDQKLYAKMCGQKAALQRLDAQLQKIDGKLHELLLECWSSQPEKRPSFQQIVKRITVQMPRKESNKQKRRSTAHENPLF”, the “soluble on expression in E. coli” value is reported as “not soluble”.

Turning to “MFPYFESVATASTEFHAIEPDPHMRRQAAEQANTQATPIHIESSPAEALPYYEDTFDVVITSMVFCTIPDIESAMSEITRVLKPGGELRFFEHVIDDGWRARLQSALAPLWKRLAGGCHLTRQTGTRLVADQSFDVVEIERLNLGITPIRPFVRGRLRKRSVSSTRLEHHHHHH”, the “soluble on expression in E. coli” value was “not soluble”.

In the case of “MGSDKIHHHHHHMDEALRTYIRVVELQSFTKAAEELHISQPAVSLQLKKLEEIYETELIYRQAKKFILTATGEILYHRAKQLEGLYKQVEDEISLYHHHLKGRLRIGASFTIGEYFLPEVIAKFHALYPDITIELIIENTAKIADKVELLQVDTGLIEGQVSKKDLEISAFSDDEMCIVGRADGSLTEIEQGATWIAREEGSGTREYLDHVLSTNGWNVAEKVVAWSNMAVKQMVLEGMGYTVISKCVVQTEITSGKLQTFNEAGSLMRKFSVLKNRQRLENRIAETFLTFLKENQ”, the “soluble on expression in E. coli” value was “not soluble”.

Take “MSHLYDPTTQYYTGEYPKQKQPAPGVQAKMTPVPDCGEKSYVGSGRLKDRKALVTGGDSGIGRAAAIAYAREGADVAINYLPAEEEDAQQVKALIEECGRKAVLLPGDLSDESFARSLVHKAREALGGLDILALVAGKQTAIPEIKDLTSEQFQQTFAVNVFALFWITQEAIPLLPKGASIITTSSIQAYQPSPHLLDYAATKAAILNYSRGLAKQVAEKGIRVNIVAPGPIWTALQISGGQTQDKIPQFGQQTPMKRAGQPAELAPVYVYLASQESSYVTAEVHGVCGGEHLG”: the “soluble on expression in E. coli” value is “not soluble”.

Turning to “MGSDKIHHHHHHMICEFSESVLDGIADALVDRGYICVDNLFEPEVVVRLRDKVFTKADETFKPASIGRGQEQHRNTDIRRDSIRWLEPQCAVDNQYLSLMESLKNGLNRRLFMGLFDYESHYALYRPGAFYKKHVDALKGSQNRILTTVFFMNPEWQPDHGGVLKLYEEDDSLIEELAPLMGRLVIFLSERFPHEVMPTTVDRASIAGWFRVAGSQHGF”, the “soluble on expression in E. coli” value was “not soluble”.

For “MKLAELSKEEIQELSMVEVAYLVMKETKEPFNYQDLLKKVAELKGMSEEQMLDRIGYLYTDLNIDGRFVTLGDNRWGLRSWYPLEQVEEEITGPTKKKAKAKAEEEVDELDENIEVFDDEFEDLEDELDELAESEDSDEEDEEFDEGDDIDELDDEFEESDDDL”, the “soluble on expression in E. coli” value is listed as “not soluble”.

Take “MSVSHAQLKAFHAVAVYGSFTRAAERLFLTQPAVSDQVRKLEERYGVLLFHRNKRSVRLSELGERLLAVTQRLFAIEAEAEELLSASSALQTGTLTLAVDAPVHVLPQIARFCERYPGIAVRVETGNTDESLQRLFSYQADLALLGRDVSDERLLSLTLRNDPIVAFVSLSHPWAGRESIRLADLDDMPLVLREQGSVTRQTLEEEMSRAGLRICPAIQVEGREASREAVVAGIGVGVVSAAEFGADTRVHALPIVDCQRRLTETLVCLREQRSRRIVETFLDLVGEDLPAPS”: the “soluble on expression in E. coli” value is recorded as “not soluble”.

Consider “MSLTQPFQLPHFYMPYPARLNPHLDEARAHSTRWARGMGMLEGSGIWEQSDLDAHDYGLLCAYTHPDCDGPALSLITDWYVWVFFFDDHFLETFKRTQDREGGKAYLDRLPLFMPLDLSAPVPEPENPVEAGLADLWARTVPAMSADWRKRFAVSTEHLLNESLWELSNINEGRIANPVEYIEMRRKVGGAPWSAGLVEYATAEVPAAVAGSRPLRVLMETFSDGVHLRNDLFSYQREVEEEGELSNGVLVLETFFGCTTQEAAETVNDILTSRLHQFEHTALTEVPALALEKGLTPPEVAAVAAYARGLQDWQSGGHEWHLRSSRYMNEEGHHHHHH”, for which the “soluble on expression in E. coli” value is “soluble”.

As to “MNAKKRKGSAVERNIVSRLRDKGFAVVRAPASGSKRKDPIPDIIALKNGVIILIEMKSRKDIEGKIYVRREQAEGIIEFARKSGGSLFLGVKKPGVLKFIPFEKLRRTETGNYVADSEIEGLDLEDLVRLVEAKISRTLDNFL”, the “soluble on expression in E. coli” value is listed as “soluble”.

On to “MGSDKIHHHHHHMVNMNIIEIRSDKIYKKIMDAPINKKEDIYRYELMKPFEFKWKCMNVPIVARQKGGYDVIIASEMLGVLSPKDIDEKQKKNINVLSADKIWATCKETIENSINAFIKEGYDLNIKDYKYSILLANPNSPYTILSDGYWGDGGIPGYIFLSLVPNEYTINRLPVLIAHECNHNIRFQFIEWNNNITLEEMMINEGLAENFATWMFGEEMLGPWVSRTDIETLNTYIKPIIKSALKETGFQNITSYLYGDDIAKMQGYFPVGLPYCAGYACGYYMIKYYLEKTNKSIIEATLLPYSEIIEAVKEFWE”, for which the “soluble on expression in E. coli” value was “not soluble”.

“MSLIPVVLSGGAGTRLWPVSREGQPKPFMRLPDGQTLLGKTYRRAAGLLAGHGEIVTVTNREHYFQSKDQFHAARLGRHRGHFILEPTGRNTAPAIAVAALGLQAEHGDAAVLVVMPADHLIRNEEAFREAVGHAARLAVAGHLVTFGVVPDAAETGFGYIELGDRLDEQGAAKVRRFVEKPDEETRRRYVESGGFLWNSGMFCFTASTLVDELAQHAPALLEQARACLAASAAVKMADGIQHELAGEGFAALPDISIDYALMERSARVAVVPAAFDWSDIGSWGAMSALLDADAEGNRGSGDTLFVDTRNTFVQSDGRLVATVGVDDLVVVDTSDALLIARADRVQEVRRVVQRLKDERHEAYRLHRTVNRPWGSYTVLEEGPRFKIKRIVVRPGERLSLQMHHHRSEHWIVVQGMARVTNGDGARLVNSNESTYIPAGHRHRLENPGVIDLVMIEVQSGEYLGEDDIVRFEDQYGREGHHHHHH”: the “soluble on expression in E. coli” value is “not soluble”.

In the case of “MAHHHHHHMSVPDLTAEELAYYASLRLEDPDEAALATFLADLEQVHEDHPSDTGAAPSSTVASASGKRGALLTSSRVPACERLDSSDVEGVPPQRRVASVDRQQPSAYAATGLAIRQISAKLFPAPRSATTDSGTRYGVTQVLEKDNLVGGVAGIADAALQTRCVELPARQLTSIAPVQCFLNATHVYLQHNALADLEGVELLSQLQVLVVHHNQLTSLAPLQQLECLSYLDVSHNNVSSSVDVLLRDELPCPSLKSLNLSNNPCWSRCGEAVSDGDGGERHRAYVQQICTACPLLERLDDVVVDDGEEVMQHSDNSTESDVKDVAERRSASAAGAAPSQAGGITVRRVHNSVEAARAASSRACVHDIHTRSSLAPPGSLVSGEAELSARPPRSAQVNKARLLEEEQARLVHQLFLRRAVGTAPGSAKAVDTVSTSPLHSNRSSTGSGHFHPGDAATEAPTEQKANQPADSTGDVSALYSTRGDILHLYHSLQFTQEVSQARLQRDVAAHWDDVSRVLQTVQALQQDRRRRIQQRLQEQTSAYTDSLIMLEKESFTKDLDRYRNSDGSRRAAPAGIHAAASAPAAPPAVDTPNGITAVAHTSAAVDGNCASKASSTSTHPPEKPKGKTKKGPSVPKPPPRR”, the “soluble on expression in E. coli” value is on record as “not soluble”.

In the case of “MGSDKIHHHHHHMDKRIFGIETEFGISYSSPDSRPLAPEEVARYLFRKVVSWGRSSNVFLTNGSRLYLDVGSHPEYATAECDDLGQLIAHDRAGELILDDLVDEAQERLAAEGFNGTVYLFKNNTDSAGNSYGSHENYLIPRRGEFSRLAEILIPFLVTRQLIAGAGKILKTPHGATFAFSQRADHIWEGVSSATTRSRPIINTRDEPHADAEFYRRLHVIVGDSNMSETTALMKVGTVDLILRMIEAGVIMRDMRMENPIRSIREISHDLSGRALIRLANGRQLTALEIQREYLNKVTSFVAENGAHNQHVPLILDLWERTLTAIESGDTSTIDTEIDWAIKKKLMDSYRKRHGLGLDAPRIAQLDLTYHDISRTRGLYYLLQSRGAVRRVVDDTAVKDAVDAPPQTTRAKLRGDFVRRAQELGRDYTVDWVHLKLNDRAHQTILCKDPFRNVDERVDALLDSMG”, the “soluble on expression in E. coli” value is “not soluble”.

In the case of “GMSESCILFFVKYPEPGKVKTRLGEVVGNDKAAMLYRHFVQDMLQGLARLHADLHICYVPGDADLPEKFKAWLGPQHMFAAQQGLDLGERMKHAMQKAFDDGYDRVVLMGSDIPDYPCELVQKALNDLQHYDAAIGPAFDGGYYLIGFRKDSFCPDVFDGIRWGEADVYQPTVEKMRRARLEVLQLPDWNDVDTVWDLNVLYRTNKNSSFRRSSTYALLRENDALIRQYDIDLPGMAPVEKE”, the “soluble on expression in E. coli” value is recorded as “soluble”.

On to “MGSDKIHHHHHHMRIAIIAITRNGARLGTQLRDGLGSAELYVLQKFAGQAGTGAVPFAGELKGLVAELWPAFDGFVFIMATGIVVRMVAPHLVAKDLDPAVVVMDDAGKFAVSLLSGHLGGANELACRCAFVTGAREVITTATDANNLPSFDMLAKEEGWAIDDLCRVKTLNALILEGEEIAVVDPTDRVRTAFHGTARLTFHDTFVEALQSGAKGFVFVTNRRLPPQAQADSLLILRPRNLALGIGCNSGTGAEEIAAVVGAQMKRLFLSLKSVACIGSAVAKQDEAGLLAFAREHGLPLRFFESGELNSVTVPSPPSAHALEAIGATGVAEPAAVLASNGGRLLLKKIKSGNVTLAIAEIP”, for which the “soluble on expression in E. coli” value is given as “not soluble”.
